Reference: US20240011046A1 (UNIVERSITY OF PITTSBURGH OF THE COMMONWEALTH SYSTEM OF …, published 2024)

Tests used:
[1] = molecular target: TGF-β receptor II (TβRII) on the HEK-293 TGF-β CAGA-Luc reporter cells (UniProt P37173 23-567, limits assumed); test: cell-based or functional assay
[2] = molecular target: T1, TGF-β type II receptor (TβRII) (UniProt P37173 38-159); test: ITC: TβRII injected into the monomer, three replicate titrations globally fit to a 1:1 binding model (reference control)
T1 construct: Soluble protein: injected in ITC, and 2 µg run on the native gel; also called TGF-β receptor II; transforming growth factor-β type 2 receptor
T1 sequence (P37173 38-159 limits assumed): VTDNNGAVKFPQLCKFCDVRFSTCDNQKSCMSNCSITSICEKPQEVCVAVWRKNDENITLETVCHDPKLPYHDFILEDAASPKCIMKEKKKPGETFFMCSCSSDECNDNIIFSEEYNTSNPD
Protocol: (§1) In order to evaluate the ability of the mmTGF-β2-7M variants described herein (mmTGF-β2-7M2R (SEQ ID NO: 9), mmTGF-β2-2M-De18-17 (SEQ ID NO: 10), and mmTGF-β2-7M-PRDC (SEQ ID NO: 11)) to bind TβRII, isothermal titration calorimetry (ITC) and native gels were used. The ITC binding experiments were performed by injecting increasing amounts of TβRII into mmTGF-β2-7M2R (SEQ ID NO: 9) or mmTGF-β2-2M-De18-17 (SEQ ID NO: 10), with mmTGF-β2-7M (SEQ ID NO: 7) used a reference control. These titrations yielded readily detectable isotherms with a large negative enthalpy and a near 1:1 binding stoichiometry (FIG. 8).

[3] = molecular target: T1, TGF-β type II receptor (TβRII); test: ITC: TβRII injected into the monomer, three replicate titrations globally fit to a 1:1 binding model
Protocol: as §1

Chain of TGF-β receptor II (TβRII) on the HEK-293 TGF-β CAGA-Luc reporter cells (P37173 23-567 limits assumed): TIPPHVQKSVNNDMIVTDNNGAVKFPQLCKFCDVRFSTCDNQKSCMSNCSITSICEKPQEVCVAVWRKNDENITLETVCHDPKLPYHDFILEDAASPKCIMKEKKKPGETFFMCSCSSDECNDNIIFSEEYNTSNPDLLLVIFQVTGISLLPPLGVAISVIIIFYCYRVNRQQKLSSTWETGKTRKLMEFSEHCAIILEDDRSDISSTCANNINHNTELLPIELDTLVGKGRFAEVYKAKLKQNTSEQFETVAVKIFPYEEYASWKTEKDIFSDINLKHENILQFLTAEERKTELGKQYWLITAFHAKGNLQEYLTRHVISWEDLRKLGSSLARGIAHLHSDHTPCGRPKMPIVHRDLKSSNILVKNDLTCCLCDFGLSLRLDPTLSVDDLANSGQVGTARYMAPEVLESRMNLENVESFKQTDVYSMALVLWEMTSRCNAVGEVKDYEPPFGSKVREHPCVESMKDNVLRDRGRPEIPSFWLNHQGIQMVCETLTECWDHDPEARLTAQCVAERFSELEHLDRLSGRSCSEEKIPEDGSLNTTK

| Binder | HEK-293 CAGA-Luc TGF-β reporter assay, inhibition of signaling stimulated by 10 pM TGF-β3, IC50 [1] [nM] | Kd [2] [nM] | Kd [3] [nM] | HEK-293 CAGA-Luc TGF-β reporter assay, IC50 relative to mmTGF-β2-7M [1] [fold] |
| --- | --- | --- | --- | --- |
| mmTGF-β2-7M (designed binder, also called dnTGFβ2^mm; mini-monomer) ALDAAYCFRNVQDNCCLRPLYIDFRKDLGWKWIHEPKGYNANFCAGACPYRASKSPSCVSQDLEPLTIVYYVGRKPKVEQLSNMIVKSCKCS | 58.2 | 60.5 | – | – |
| mmTGF-β2-2M-Del8-17 (designed binder, The 8-17 disulfide is eliminated; also called mmTGF-β2-2M-De18-17; mmTGF-β2-2M-De18_17) ALDAAYVFRNVQDNCALRPLYIDFRRDLGWKWIHEPKGYNANFCAGACPYRASKSPSCVSQDLEPLTILYYIGRTPKIEQLSNMIVKSCKCS | 111 | – | 80.1 | – |

Further lines, results first:

| HEK-293 CAGA-Luc TGF-β reporter assay, inhibition of signaling stimulated by 10 pM TGF-β3, IC50 [1] [nM] | Kd [2] [nM] | Kd [3] [nM] | HEK-293 CAGA-Luc TGF-β reporter assay, IC50 relative to mmTGF-β2-7M [1] [fold] | Binder |
| --- | --- | --- | --- | --- |
| 53.3 | – | 75.1 | – | mmTGF-β2-7M2R (designed binder, Made to reduce aggregation) ALDAAYCFRNVQDNCCLRPLYIDFRKDLGWKWIHEPKGYNANFCAGACPYRASKSPRCRSQDLEPLTIVYYVGRKPKVEQLSNMIVKSCKCS |
| 282 | – | – | ~5 | mmTGF-β2-7M-PRDC (designed binder) KEVLASSQEALVVTERKYLKSDWCKLRPLYIDFRKDLGWKWIHEPKGYNANFCYGQCNSFYIPRHVKKEEDSFQSSAFCVSQDLEPLTIVYYVGRKPKVEQLSNMIVKSCRCMSV |
